From paper PMC3072023 (Biochemistry, 2010)

Biological target: the molecule itself
Test: crystal structure

B1: GluA2 S1S2 flop (ligand-binding domain of rat GluA2o) (domain or fragment)
chain: GANKTVVVTTILESPYVMMKKNHEMLEGNERYEGYCVDLAAEIAKHCGFKYKLTIVGDGKYGARDADTKIWNGMVGELVYGKADIAIAPLTITLVREEVIDFSKPFMSLGISIMIKKGTPIESAEDLSKQTEIAYGTLDSGSTKEFFRRSKIAVFDKMWTYMRSAEPSVFVRTTAEGVARVRKSKGKYAYLLESTMNEYIEQRKPCDTMKVGGNLDSKGYGIATPKGSSLGNAVNLAVLKLNEQGLLDKLKNKWWYDKGECGS
  binding result: binds
